Key:
Details in all cases: protein: recombinant; blunt
[1] = target: T1, Sc_Rpn4p (Saccharomyces cerevisiae S288C, UniProt Q03465 2-531); test: SPR; Biacore 3000 SA chip; HBS: 10 mM HEPES pH 7.4, 150 mM NaCl, 3 mM EDTA, 0.005% P20; room temperature; 10 ul/min, 90 s injection; competitors preincubated 50 min
T1 sequence: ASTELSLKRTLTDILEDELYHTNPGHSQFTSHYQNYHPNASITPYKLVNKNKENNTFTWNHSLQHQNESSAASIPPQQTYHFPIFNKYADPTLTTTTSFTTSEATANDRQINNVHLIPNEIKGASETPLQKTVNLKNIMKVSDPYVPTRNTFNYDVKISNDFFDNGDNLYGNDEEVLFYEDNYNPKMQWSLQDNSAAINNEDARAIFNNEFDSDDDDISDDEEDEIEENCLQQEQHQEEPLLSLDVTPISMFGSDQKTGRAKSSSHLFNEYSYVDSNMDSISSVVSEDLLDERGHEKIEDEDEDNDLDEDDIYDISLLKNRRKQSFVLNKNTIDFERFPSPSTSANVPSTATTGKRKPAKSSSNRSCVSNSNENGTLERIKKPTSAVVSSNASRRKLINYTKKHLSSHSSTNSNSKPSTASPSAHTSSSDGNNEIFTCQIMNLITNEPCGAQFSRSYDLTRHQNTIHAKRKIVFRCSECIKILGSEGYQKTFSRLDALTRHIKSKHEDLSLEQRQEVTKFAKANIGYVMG

[2] = target: T1, Sc_Rpn4p; test: SPR; 50 nM protein; Biacore 3000 SA chip; HBS: 10 mM HEPES pH 7.4, 150 mM NaCl, 3 mM EDTA, 0.005% P20; room temperature; 10 ul/min, 90 s injection; competitors preincubated 50 min
[3] = target: T1, Sc_Rpn4p; test: competition; SPR; 1x and 5x competitor; Biacore 3000 SA chip; HBS: 10 mM HEPES pH 7.4, 150 mM NaCl, 3 mM EDTA, 0.005% P20; room temperature; 10 ul/min, 90 s injection; competitors preincubated 50 min
[4] = target: T1, Sc_Rpn4p; test: competition; SPR; 1x and 5x competitor; best competitor on Sequences A, B, C; Biacore 3000 SA chip; HBS: 10 mM HEPES pH 7.4, 150 mM NaCl, 3 mM EDTA, 0.005% P20; room temperature; 10 ul/min, 90 s injection; competitors preincubated 50 min

B1: Sequence I (dsDNA)
DNA 1: ACTTGTTCCCGCTCGCTGGAGCTCCTCCAACGACACGGGC
DNA 2: GCCCGTGTCGTTGGAGGAGCTCCAGCGAGCGGGAACAAGT
binding result [1]: no binding

B2: Sequence A (dsDNA)
DNA 1: GCGTGCCAGATAATCGGTGGCAAAACGGAAGAAAAAGTGA
DNA 2: TCACTTTTTCTTCCGTTTTGCCACCGATTATCTGGCACGC
binding result [2]: binds

B3: Sequence G competitor (dsDNA)
DNA 1: CCAGATAATCCTGCATTTGGCGGAAGAAAA
DNA 2: TTTTCTTCCGCCAAATGCAGGATTATCTGG
binding result [3]: no binding

B4: Sequence D competitor (dsDNA)
DNA 1: CCAGATAATCGGTGGCAAAACGGAAGAAAA
DNA 2: TTTTCTTCCGTTTTGCCACCGATTATCTGG
binding result [4]: binds
